# Results published in patent publication US20240350441A1, “PHARMACEUTICAL FORMULATION AND A PROCESS FOR ITS PREPARATION” (SAVA HEALTHCARE LTD, priority 2021, published 2024).
# What was measured:
# Type in all cases: in vivo, Female Swiss Albino mice
# [1] = test system: Cyclophosphamide induced neutropenia; experiment: Cyclophosphamide induced neutropenia, hematological changes (Example 9)
# Procedure: • 1. To induce neutropenia in mice by administration of cyclophosphamide. • 2. To determine the effect of treatments of pure Picroside 1 and the degraded Picroside 1 with salt on total WBC count, neutrophils, monocyte, lymphocytes and platelet count. • 3. To compare the effect of pure Picroside 1 and the degraded Picroside 1 with salt standard 2 μg G-CSF.
# Cyclophosphamide was procured from Sigma Aldrich and G-CSF was procured from marketed formulation of Lupin limited, Lupifil (300). Female Swiss Albino mice weighing between 25-27 g were procured from National Institute of Biosciences, Pune.
# (§1) Female Swiss Albino mice were randomized into different groups based on body weight as follows: • Group 1—cyclophosphamide control (CP control), • Group 2—pure Picroside 1 treated, • Group 3—the degraded Picroside 1 with salt and • Group 4—GCSF (granulocyte colony stimulating factor) treated groups. • On day 0, blood was withdrawn from all animals for basal hematological parameters. The animals of all the groups were injected with 150 mg/kg of cyclophosphamide through intraperitoneal route (i.p.). On Day 3, blood was withdrawn from all animals for total and differential count (neutrophils, lymphocytes, and monocytes). The animals were dosed with one additional dose of 100 mg/kg cyclophosphamide on Day 4. From day 5, the animals were administered with respective treatments through oral route in water as vehicle while group 1 was administered with placebo tablets for 5 consecutive days. On day 10, blood was withdrawn from all animals for Total and differential count (neutrophils, lymphocytes, and monocytes), WBCs, Platelets and AST (aspartate aminotransferase) and ALT (alanine aminotransferase).
# [2] = test system: Cyclophosphamide induced hepatotoxicity; experiment: Cyclophosphamide induced hepatotoxicity, AST/ALT (Example 9); conditions: for ALT (alanine aminotransferase) / AST (aspartate aminotransferase): day 10, after 5 days treatment from day 5, GCSF 2 μg
# Procedure: as §1
# [3] = test system: Cyclophosphamide induced neutropenia; experiment: Cyclophosphamide induced neutropenia, hematological parameters (Example 10)
# Procedure: (§2) • 1. To induce neutropenia by administration of cyclophosphamide. • 2.
# (§3) Materials: Female Swiss Albino mice weighing between 25-27 g was procured from Global Bioresearch Solutions Pvt Ltd., Pune.
# (§4) On day 0, blood was withdrawn from all animals for basal hematological parameters. All the groups of animals except placebo group were injected with 150 mg/kg of cyclophosphamide through intraperitoneal route (i.p.), while group 1 was injected with water for injection, i.p. On Day 3, blood was withdrawn from all animals for Total and differential count (neutrophils, lymphocytes, and monocytes). The animals of group 2 to 7 were dosed with one additional dose of 100 mg/kg cyclophosphamide on Day 4. […] The cyclophosphamide control group was injected with water for injection from day 5 to day 9. On day 10, blood was withdrawn from all animals for total and differential count (neutrophils, lymphocytes, and monocytes), platelets, liver parameters AST (aspartate aminotransferase), ALT (alanine aminotransferase), and renal parameters—serum creatinine, blood urea nitrogen and uric acid.
# (§5) • Pure Picroside 1—1 tablet was dissolved in 0.1 ml of sterile water for injection and 0.1 ml was injected as subcutaneous injection. • The degraded Picroside 1 without salt (cinnamic acid of the present disclosure)—1 tablet was dissolved in 0.1 ml of sterile water for injection and 0.1 ml was injected as subcutaneous injection. • The Cinnamic acid low dose (0.6 mg/tablet) treated tablet was dissolved in 0.1 ml of sterile water for injection and 0.1 ml was injected as subcutaneous injection. • The Cinnamic acid high dose treated (6 mg/tablet) tablet was dissolved in 0.1 ml of sterile water for injection and 0.1 ml was injected as subcutaneous injection.
# [4] = test system: Cyclophosphamide induced hepatotoxicity and renal changes; experiment: Hepatic and renal parameters in cyclophosphamide induced neutropenia (Example 10); conditions: for BUN (blood urea nitrogen) / SGOT Serum glutamic oxaloacetic transaminase / SGPT (Serum glutamic pyruvic transaminase) / Serum Creatinine / Uric acid: day 10, G-CSF 2 μg s.c., others 1 tablet per animal per day for 5 days
# Procedure: as §2, §3, §4, §5
# [5] = Day 0, basal, before cyclophosphamide
# [6] = Day 3, after cyclophosphamide 150 mg/kg i.p., before treatment
# [7] = Day 10, after 5 days treatment from day 5, GCSF 2 μg
# [8] = compared to cyclophosphamide control group, Example 9
# [9] = Day 0, basal, G-CSF 2 μg, Picroside tablets groups
# [10] = Day 3, after cyclophosphamide, before treatment, G-CSF 2 μg, Picroside tablets groups
# [11] = Day 10, treated day 5 for 5 days, G-CSF 2 μg s.c., others 1 tablet per animal per day
# [12] = vs CP control, day 10, cinnamic acid at both 0.6 mg/tablet low dose and 6 mg/tablet high dose
# [13] = vs CP control, cinnamic acid at both 0.6 mg/tablet low dose and 6 mg/tablet high dose
molecule,measurement,setting,value
"O=C(/C=C/c1ccccc1)OC[C@H]1O[C@@H](O[C@@H]2OC=C[C@H]3[C@H](O)[C@@H]4O[C@]4(CO)[C@@H]23)[C@H](O)[C@@H](O)[C@@H]1O [Pure Picroside 1, Picroside 1]",% Lymphocytes,[1]; [5],40.32 ± 1.56%
same,% Monocytes,[1]; [5],7.32 ± 0.32^ %
same,% Neutrophils,[1]; [5],43 ± 0.68%
same,Platelet Count,[1]; [5],741600 ± 3476 per cu · mm of blood
same,WBC Count,[1]; [5],7410 ± 414.90 per cu · mm of blood
same,% Lymphocytes,[1]; [6],80.00 ± 1.92%
same,% Monocytes,[1]; [6],1.50 ± 0.34^ %
same,% Neutrophils,[1]; [6],7 ± 0.92%
same,Platelet Count,[1]; [6],647900 ± 26900 per cu · mm of blood
same,WBC Count,[1]; [6],1562 ± 145.90 per cu · mm of blood
same,% Lymphocytes,[1]; [7],72.00 ± 1.46 %
same,% Monocytes,[1]; [7],4.50 ± 0.34 %
same,% Neutrophils,[1]; [7],12.66 ± 0.66 %
same,Platelet Count,[1]; [7],653300 ± 26550 per cu · mm of blood
same,WBC Count,[1]; [7],4380 ± 333.30 per cu · mm of blood
same,Effect on % lymphocytes,[1]; [8],significant (p<0.01) reduction in % lymphocytes
same,Effect on % monocytes,[1]; [8],significantly reversed
same,Effect on platelet count,[1]; [8],improved the platelet count significantly (p<0.001)
same,Effect on total WBC count,[1]; [8],significantly (p<0.001) reversed the cyclophosphamide induced decrease in WBC count
same,Effect on % neutrophil,"[1]; compared to cyclophosphamide/placebo control group, Example 9",significantly (p<0.01) alleviated the cyclophosphamide-induced neutropenia
same,Effect on ALT,[2]; [8],significant reversal (p<0.001)
same,Effect on AST,[2]; [8],significant (p<0.001) decrease in AST
same,ALT (alanine aminotransferase),[2],37.32 ± 0.66 IU/L
same,AST (aspartate aminotransferase),[2],43.66 ± 2.68 IU/L
same,% Lymphocytes,[3]; [9],44.33%
same,% Monocytes,[3]; [9],6.00%
same,% Neutrophils,[3]; [9],41.00%
same,No of Platelets,[3]; [9],735700 per cu · mm of blood
same,Total WBC Count,[3]; [9],7301 per cu · mm of blood
same,% Lymphocytes,[3]; [10],84%
same,% Monocytes,[3]; [10],1.50%
same,% Neutrophils,[3]; [10],6.50%
same,No of Platelets,[3]; [10],631700 per cu · mm of blood
same,Total WBC Count,[3]; [10],2365 per cu · mm of blood
same,% Lymphocytes,[3]; [11],58.67%
same,% Monocytes,[3]; [11],5.00%
same,% Neutrophils,[3]; [11],28.33%
same,No of Platelets,[3]; [11],626800 per cu · mm of blood
same,Total WBC Count,[3]; [11],3674 per cu · mm of blood
same,Anti-neutropenic activity (words),[3]; inference from table 8A,shows better anti-neutropenic activity
same,BUN (blood urea nitrogen),[4],9.483 mmol/L
same,SGOT Serum glutamic oxaloacetic transaminase,[4],25.67 IU/L
same,SGPT (Serum glutamic pyruvic transaminase),[4],28.5 IU/L
same,Serum Creatinine,[4],46.8 µM
same,Uric acid,[4],30.00 mg/L
same,Hepatic and renal parameters in neutropenic animal model,"[4]; inference from table 8B, as compared to GCSF",improved hepatic and renal parameters
"GCSF: glycoprotein that stimulates the bone marrow to produce granulocytes and stem cells; marketed formulation of Lupin limited (protein, UniProt P09919 31-207, looked up, filgrastim (Lupifil), glycoprotein that stimulates the bone marrow to produce granulocytes and stem cells; marketed formulation of Lupin limited) Granulocyte …: TPLGPASSLPQSFLLKCLEQVRKIQGDGAALQEKLVSECATYKLCHPEELVLLGHSLGIPWAPLSSCPSQALQLAGCLSQLHSGLFLYQGLLQALEGISPELGPTLDTLQLDVADFATTIWQQMEELGMAPALQPTQGAMPAFASAFQRRAGGVLVASHLQSFLEVSYRVLRHLAQP",% Lymphocytes,[1]; [5],40.00 ± 3.22%
same,% Monocytes,[1]; [5],7.32 ± 0.42%
same,% Neutrophils,[1]; [5],42.16 ± 1.74%
same,Platelet Count,[1]; [5],732400 ± 7528 per cu · mm of blood
same,WBC Count,[1]; [5],7438 ± 626.20 per cu · mm of blood
same,% Lymphocytes,[1]; [6],82.50 ± 1.40%
same,% Monocytes,[1]; [6],1.32 ± 0.22%
same,% Neutrophils,[1]; [6],7.16 ± 0.48%
same,Platelet Count,[1]; [6],637100 ± 38470 per cu · mm of blood
same,WBC Count,[1]; [6],1580 ± 235.00 per cu · mm of blood
same,% Lymphocytes,[1]; [7],59.32 ± 2.24 %
same,% Monocytes,[1]; [7],5.66 ± 0.48 %
same,% Neutrophils,[1]; [7],26.00 ± 1.66 %
same,Platelet Count,[1]; [7],690300 ± 15510 per cu · mm of blood
same,WBC Count,[1]; [7],4518 ± 406.00 per cu · mm of blood
same,Effect on % lymphocytes,[1]; [8],reversed cyclophosphamide-induced lymphocyte recruitment significantly (p<0.001)
same,Effect on platelet count,[1]; [8],significant increase in platelet count
same,Effect on total WBC count,[1]; [8],significantly (p<0.001) reversed the cyclophosphamide induced decrease in WBC count
same,Effect on AST,[2]; [8],significant (p<0.001) reduction in AST
same,ALT (alanine aminotransferase),[2],36.16 ± 0.70 IU/L
same,AST (aspartate aminotransferase),[2],45.16 ± 2.72 IU/L
same,% Lymphocytes,[3]; [9],45.5%
same,% Monocytes,[3]; [9],6.00%
same,% Neutrophils,[3]; [9],41.33%
same,No of Platelets,[3]; [9],752200 per cu · mm of blood
same,Total WBC Count,[3]; [9],7255 per cu · mm of blood
same,% Lymphocytes,[3]; [10],83.5%
same,% Monocytes,[3]; [10],1.833%
same,% Neutrophils,[3]; [10],6.667%
same,No of Platelets,[3]; [10],645800 per cu · mm of blood
same,Total WBC Count,[3]; [10],2617 per cu · mm of blood
same,% Lymphocytes,[3]; [11],50.17%
same,% Monocytes,[3]; [11],5.167%
same,% Neutrophils,[3]; [11],36.67%
same,No of Platelets,[3]; [11],674900 per cu · mm of blood
same,Total WBC Count,[3]; [11],6030 per cu · mm of blood
same,Effect on % lymphocytes,[3]; [12],significant (p<0.001) decrease in % lymphocytes
same,Effect on % monocytes,[3]; [12],significantly (p<0.001) reversed
same,Effect on platelet count,[3]; [12],significant (p<0.05) increase in platelet count
same,Effect on total WBC count,[3]; [12],significantly (p<0.001) reversed the cyclophosphamide induced decrease in WBC count
same,BUN (blood urea nitrogen),[4],9.633 mmol/L
same,SGOT Serum glutamic oxaloacetic transaminase,[4],32.17 IU/L
same,SGPT (Serum glutamic pyruvic transaminase),[4],34.33 IU/L
same,Serum Creatinine,[4],44.5 µM
same,Uric acid,[4],26.33 mg/L
same,Effect on BUN level,[4]; [13],significant (p<0.001) decrease in BUN level
same,Effect on SGOT level,[4]; [13],significant (p<0.001) reduction in SGOT
same,Effect on serum creatinine level,[4]; [13],significant (p<0.001) reduction in creatinine level
same,Effect on uric acid level,[4]; [13],significant decrease in uric acid levels (p<0.001)
